Among the data in patent US20090326205A1 (LIV TECH, published 2009) are Kd, binding result and EC50 values, retold here.

The target of assay [1] is T1, purified recombinant hFA-1 protein (hDlk-1 extracellular region, FA-1) (human, UniProt P80370 24-303).
T1 construct: also called human FA1; purified FA-1; not shown: C-terminal Myc tag and His tag from vector pcDNA4/Myc-His
T1 sequence: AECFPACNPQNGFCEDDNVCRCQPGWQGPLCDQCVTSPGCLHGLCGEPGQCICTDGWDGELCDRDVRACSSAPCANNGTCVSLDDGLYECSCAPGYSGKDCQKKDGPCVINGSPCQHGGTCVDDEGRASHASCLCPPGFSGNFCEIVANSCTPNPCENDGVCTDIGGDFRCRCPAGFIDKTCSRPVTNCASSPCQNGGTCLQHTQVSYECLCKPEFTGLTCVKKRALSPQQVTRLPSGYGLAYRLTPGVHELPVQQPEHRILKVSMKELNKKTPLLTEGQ
Nature of the assay: ELISA method of Djavadi-Ohaniance: antibody (0.5 nM) equilibrated with hFA-1 (3.125-50 nM), then added to an hFA-1-coated plate. On the procedure:
Specifically, the purified recombinant hFA-1 protein (1 μg/mL) was added to a 96-well culture plate (Corning) to fix as an antigen (at room temperature for 1 hour). Subsequently, the plate was washed with PBS 3 times and 2% skim milk (PBS solution) was added thereto for blocking (at room temperature for 1 hour). After the plate had been washed with PBS 2 times, an antigen-antibody complex formed by previously mixing an antigen solution (a purified hFA-1 protein; 50, 25, 12.5, 6.25 and 3.125 nM) with each clone of the anti-hDlk-1 monoclonal antibody (0.5 nM) and then equilibrating the mixture was added to the aforementioned ELISA plate for a reaction (at room temperature for 1 hour). After the plate had been washed with PBS 3 times, it was allowed to react with HRP-labeled anti-mouse IgG (final concentration: 1 μg/mL) or HRP-labeled anti-rat IgG (final concentration: 1 μg/mL) (both of which were available from GE Healthcare Biosciences), which had been diluted with a blocking solution, at room temperature for 1 hour.
Subsequently, the affinity (dissociation constant) of these clones for an antigen was calculated by the aforementioned ELISA method. […] The affinity of the clone 2-13 for the purified recombinant hFA-1 was not high and thus the Kd value thereof could not be calculated by the aforementioned method.
Background: An ELISA detects its analyte on a solid surface through an enzyme-linked reagent.

The target of assay [2] is T2, hDlk-1 EGF-like motif deletion construct EGF (4-6) expressed on COS-7 cells (human, UniProt P80370 131-244).
T2 construct: also called hDlk (EGF 4-6)-pME18-CHFX; hdlk-EGF (4-6)/pME18S-CFHX
T2 sequence: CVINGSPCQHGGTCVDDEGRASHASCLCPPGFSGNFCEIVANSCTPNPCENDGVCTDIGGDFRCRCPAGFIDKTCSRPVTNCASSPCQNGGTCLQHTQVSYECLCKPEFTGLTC
Nature of the assay: FACS and immunostaining of transfected COS-7 cells. An excerpt: (§1) Each of expression vectors hDlk (EGF 1-2)-pME-CHFX, hDlk (EGF 1-3)-pME-CHFX, hDlk (EGF 3-4)-pME-CHFX, hDlk (EGF 4-6)-pME18-CHFX and hDlk (EGF 5-6)-pME18-CHFX (FIG. 7) was introduced into COS-7 cells and they were then subjected to FACS analysis and the immunostaining of Cytospin specimens, so as to examine sites in a region containing 6 EGF-like motifs existing in the FA-1 region (extracellular region) of hDlk-1, which were recognized by each anti-hDlk-1 monoclonal antibody.
(§2) It has been reported that, among mouse IgG isotypes, IgG2a and IgG2b have strong antibody-dependent cytotoxic activity (ADCC) and that the ADCC of IgG1 is low (please refer to Kipps, T. J. et al., 1985). The isotype of the clone DI-2-14 is mouse IgG1.

Assay [3] deals with T3, hDlk-1 EGF-like motif deletion construct EGF (5-6) expressed on COS-7 cells (human, UniProt P80370 170-383).
T3 construct: also called hDlk (EGF 5-6)-pME18-CHFX
T3 sequence: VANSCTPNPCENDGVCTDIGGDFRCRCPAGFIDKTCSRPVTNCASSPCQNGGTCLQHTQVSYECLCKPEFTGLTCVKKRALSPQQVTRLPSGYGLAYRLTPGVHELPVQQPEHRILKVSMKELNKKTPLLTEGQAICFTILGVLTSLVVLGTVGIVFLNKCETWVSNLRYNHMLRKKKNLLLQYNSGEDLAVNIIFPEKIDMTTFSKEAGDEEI
Nature of the assay: FACS and immunostaining of transfected COS-7 cells.
Source text: as §1, §2

Assay [4] concerns the target T1, purified recombinant hFA-1 protein …. In words: ELISA, purified recombinant hFA-1 (0.5 to 1 µg/mL) immobilized, antibody dilution series. On the procedure: ELISA was carried out in the same manner as described in Example 1, using an ELISA plate on which the purified recombinant hFA-1 protein (0.5 to 1 μg/mL) had been immobilized. Specifically, the ELISA plate was washed with a washing buffer 3 times and it was then blocked using a blocking solution at room temperature for 1 hour (or at 4° C. overnight). Thereafter, the plate was washed with a washing buffer 2 times and a mouse DI-2-14 antibody and a ChDI-2-14 antibody, wherein dilution series were produced using an ELISA buffer, were added to the plate, so that they were allowed to react (at 4° C. overnight). Thereafter, the plate was washed with a washing buffer 3 times and it was then allowed to react with HRP-labeled anti-mouse IgG (final concentration: 1 μg/mL) or HRP-labeled anti-human IgG (final concentration: 1 μg/mL) (both products manufactured by GE Healthcare), which had been diluted with a blocking solution.

B1: anti-hDlk-1 monoclonal antibody clone DI-2-14 (mouse IgG1) (antibody, V domains shown)
VH: EVQLQQSGAELVKPGASVKLSCTASGFNIRDTYIHWVKQRPEQGLEWIGRIDPPNGNLKYDPKFQGKATITADTSSNTAYLQFSSLTSEDTAVYYCARSDGYSFAYWGQGTLVTVSA
VL: DIVMTQAAPSVPVTPGESVSISCRSSKSLLHSNGNTYLYWFLQRPGQSPQLLIYRMSNLASGVPDRFSGSGSGTAFTLRISRVEAEDVGVYYCMQHVEYPFTFGSGTKLEIK
notes: also called mouse DI-2-14; mouse DI-2-14 antibody
For B1, the Kd (as a rule, a measure of binding affinity in units of concentration) in assay [1] came out at 9.26 nM. Besides, the binding result in assay [2] and in assay [3] was “no binding” in each case. Further, in assay [4], the EC50 (usually the concentration giving half of the maximal effect) was 0.01 µg/mL.

B2: chimeric DI-2-14 antibody (ChDI-2-14), mouse-human chimeric DI-2-14 IgG1/K (antibody, V domains shown)
VH: B1 VH
VL: B1 VL
notes: domain: human γ1 heavy chain constant region; not shown: human kappa chain constant region (CL) of vector pChDI-2-14
Regarding B2, the EC50 in assay [4] worked out at 0.01 µg/mL.
